Numbering of substitutions follows the chain as printed.
T1: biotinylated recombinant human IL-12Rβ2 (human, UniProt Q99665 24-622, random biotinylated)
T1 construct: Recombinant protein produced in-house; also called hIL-12RB2; human IL-12RB2
T1 sequence: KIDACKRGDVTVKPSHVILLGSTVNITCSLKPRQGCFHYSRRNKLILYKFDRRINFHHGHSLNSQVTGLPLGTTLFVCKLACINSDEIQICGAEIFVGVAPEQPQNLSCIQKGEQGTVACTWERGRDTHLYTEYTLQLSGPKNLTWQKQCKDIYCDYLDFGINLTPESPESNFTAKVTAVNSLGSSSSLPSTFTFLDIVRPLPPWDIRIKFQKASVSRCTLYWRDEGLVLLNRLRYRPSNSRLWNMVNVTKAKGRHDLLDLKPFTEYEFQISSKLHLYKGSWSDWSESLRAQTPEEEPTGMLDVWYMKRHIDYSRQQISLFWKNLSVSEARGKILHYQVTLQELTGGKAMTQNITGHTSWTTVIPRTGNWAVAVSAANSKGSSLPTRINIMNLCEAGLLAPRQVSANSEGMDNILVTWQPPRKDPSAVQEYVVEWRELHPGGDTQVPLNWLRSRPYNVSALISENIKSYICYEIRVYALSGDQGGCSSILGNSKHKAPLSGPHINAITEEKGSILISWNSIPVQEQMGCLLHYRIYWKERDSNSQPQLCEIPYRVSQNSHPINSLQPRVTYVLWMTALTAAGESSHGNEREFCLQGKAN

T2: biotinylated recombinant human IL-12Rβ2 (produced in-house) (human, UniProt Q99665 24-622, random biotinylated)
T2 construct: also called hIL-12RB2; hIL12RB2
T2 sequence: T1 sequence

T3: mouse IL-12Rβ2 expressed on cells (mouse, UniProt P97378 24-874)
T3 construct: HEK293T cells, stably transduced (cDNA NM_008354); also called mIL-12RB2
T3 sequence: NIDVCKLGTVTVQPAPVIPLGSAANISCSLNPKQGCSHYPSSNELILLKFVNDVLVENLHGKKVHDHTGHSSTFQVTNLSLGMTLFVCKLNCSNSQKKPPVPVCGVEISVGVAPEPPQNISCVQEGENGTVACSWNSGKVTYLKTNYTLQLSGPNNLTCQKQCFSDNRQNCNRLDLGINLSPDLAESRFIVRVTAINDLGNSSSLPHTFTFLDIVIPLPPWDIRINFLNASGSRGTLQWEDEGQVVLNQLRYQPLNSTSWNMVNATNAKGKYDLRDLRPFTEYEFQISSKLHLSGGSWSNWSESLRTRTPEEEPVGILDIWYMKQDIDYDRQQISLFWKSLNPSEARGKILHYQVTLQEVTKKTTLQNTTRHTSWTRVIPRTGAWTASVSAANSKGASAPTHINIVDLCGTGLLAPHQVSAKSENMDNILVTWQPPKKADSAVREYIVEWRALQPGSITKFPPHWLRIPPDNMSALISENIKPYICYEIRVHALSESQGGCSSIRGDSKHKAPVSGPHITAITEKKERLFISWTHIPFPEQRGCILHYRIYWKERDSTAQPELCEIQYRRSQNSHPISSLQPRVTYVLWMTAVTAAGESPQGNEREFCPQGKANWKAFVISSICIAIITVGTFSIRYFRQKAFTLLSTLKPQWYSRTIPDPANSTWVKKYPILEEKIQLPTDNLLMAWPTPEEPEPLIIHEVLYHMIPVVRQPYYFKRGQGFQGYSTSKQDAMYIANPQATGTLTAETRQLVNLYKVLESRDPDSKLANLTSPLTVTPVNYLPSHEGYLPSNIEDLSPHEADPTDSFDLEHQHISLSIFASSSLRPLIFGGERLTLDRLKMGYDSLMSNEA

T4: biotinylated recombinant mouse IL-12Rβ2 (produced in-house) (mouse, UniProt P97378 24-637, random biotinylated)
T4 construct: also called mIL-12RB2; mIL12RB2
T4 sequence: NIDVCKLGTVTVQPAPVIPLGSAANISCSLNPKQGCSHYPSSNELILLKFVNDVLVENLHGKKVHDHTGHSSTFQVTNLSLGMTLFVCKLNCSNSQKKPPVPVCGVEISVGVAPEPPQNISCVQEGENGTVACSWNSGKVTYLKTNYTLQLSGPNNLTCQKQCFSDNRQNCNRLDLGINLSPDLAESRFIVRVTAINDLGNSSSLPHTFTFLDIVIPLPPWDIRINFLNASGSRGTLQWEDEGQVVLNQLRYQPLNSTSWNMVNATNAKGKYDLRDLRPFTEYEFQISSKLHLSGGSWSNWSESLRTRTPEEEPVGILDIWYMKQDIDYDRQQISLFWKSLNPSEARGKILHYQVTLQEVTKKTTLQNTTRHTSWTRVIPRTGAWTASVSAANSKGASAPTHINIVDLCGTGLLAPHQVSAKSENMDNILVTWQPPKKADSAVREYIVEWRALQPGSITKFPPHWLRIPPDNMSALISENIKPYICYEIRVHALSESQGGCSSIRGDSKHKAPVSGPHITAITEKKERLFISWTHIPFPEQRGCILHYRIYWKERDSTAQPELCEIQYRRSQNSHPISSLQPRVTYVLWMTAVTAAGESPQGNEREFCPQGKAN

T5: biotinylated recombinant mouse IL-12Rβ2 (mouse, UniProt P97378 24-637, random biotinylated)
T5 construct: Recombinant protein produced in-house, biotinylated; also called mIL-12RB2; mouse IL-12RB2
T5 sequence: T4 sequence

B1: anti-IL-12Rβ2 VHH clone 3CRH17 (clone ID 20376) (VHH, not shown: small tags and cut ends)
VHH: QVQLQESGGGLVQAGGSLVLSCAASGSAALIFLMSWYRQAPGKQRELVAEVSRYGSTTYADSVEGRFTISRDNAKNIVDLQMNSLKPEDTAVYYCKADQYYGDSLRSSWGRGTQVTVSS
notes: periplasmic extract
B2: anti-IL-12Rβ2 VHH clone 3CRH67 (clone ID 20387) (VHH, not shown: small tags and cut ends)
VHH: B1 VHH with V92A
notes: periplasmic extract
B3: anti-IL-12Rβ2 VHH clone 3CAM1 (VHH, not shown: small tags and cut ends)
VHH: QVQLQESGGGLVQAGGSLRLSCAASGRTFGSHRMGWFRQAPGQEREFVAAIAWRGGTQYYTDSVKGRFTISRDNANNTVYLQMNSLKPEDAAVYYCVAGEGSSWGDITDPRRYVFWGQGTQVTVSS
notes: tested as periplasmic extract
B4: anti-IL-12Rβ2 VHH clone 3CAM65 (VHH, not shown: small tags and cut ends)
VHH: QVQLQESGGGLVQAGGSLRLSCAPSGRTFTTYVMGWFRQAPGKEREFVAHISWSGGRTYYADSVKGRFTISRDNAKNTSYLQMNSLKPEDTAVYYCAAARSDAVRIGYAEGYEYWGQGTQVTVSS
notes: tested as periplasmic extract; also called 20513
B5: anti-IL-12Rβ2 VHH clone 2CAMS52 (VHH, not shown: small tags and cut ends)
VHH: QVQLQESGGGLVQPGASLRLSCATSGPTLSTYAMGWFRQAPGKEREVVATISWSGGRVTYVDSVKGRFTISRDNAKNTAYLQMNRLRPDDTAVYTCAARESDYGAYDYWGQGTQVTVSS
notes: tested as periplasmic extract; also called 20535; 2CAMSSZ
B6: anti-IL-12Rβ2 VHH clone 3CAM57 (VHH, not shown: small tags and cut ends)
VHH: QVQLQESGGGLVQAGGSLRLSCTPSGRTFSTLAMGWFRQAPGKEREVVATISWSGGRTYYASSVKSRFTISRDNAKNTAYLQMNSLRPDDTAVYYCAARGTDYGAYDYWGQGTQVTVSS
notes: tested as periplasmic extract; also called 20512; 3CAMS7
B7: anti-IL-12Rβ2 VHH clone 20450 (VHH, not shown: small tags and cut ends)
VHH: QVQLQESGGGLVQPGGSLRLSCAASGFTISNYAMSWVRQAPGKGLEWVSSIGSNIASTNYADSVKGRFTISRDNAKNTLYLQMNSLKPEDTAVYYCAKASQNHSPPGQGTQVTVSS
notes: tested as periplasmic extract; also called 2CRM61
B8: anti-IL-12Rβ2 VHH clone 20460 (VHH, not shown: small tags and cut ends)
VHH: B7 VHH with P14A, I29L, S30G, N31S, G52S, N54S, I55G, A56T, S57N, Q111P
notes: tested as periplasmic extract; also called 3CRM63

These binders were tested against biotinylated recombinant mouse IL-12Rβ2 (mouse) (UniProt P97378) (assay: ELISA, P.E., biotinylated antigen).
Work on B1 yielded an ELISA mIL-12RB2/control of 2.85.
B2 was tested, and the ELISA mIL-12RB2/control was 2.11.

These binders were tested against T1, biotinylated recombinant human IL-12Rβ2 (assay: BLI, P.E., off-rate ranking).
With B1 the Response was 0.53 and the koff was 0.00446 s⁻¹.
Work on B2 yielded a Response of 0.617 and a koff of 0.00495 s⁻¹.

The binders below were run against T1, biotinylated recombinant human IL-12Rβ2 (assay: ELISA, P.E., biotinylated antigen).
In the case of B1, the “ELISA hIL-12RB2/control” value is reported as 9.8.
With B2 the “ELISA hIL-12RB2/control” value was 10.

What follows are binders tested against T2, biotinylated recombinant human IL-12Rβ2 … (assay: ELISA, P.E. VHH on biotinylated hIL-12RB2).
B3: no binding.
B4: no binding.
B5: no binding.
B6: no binding.

These binders were tested against T3, mouse IL-12Rβ2 expressed on cells (assay: flow cytometry, P.E. VHH on HEK293T cells expressing mIL-12RB2).
In the case of B3, the “% cells bound” value is reported as 63% and the dMFI is reported as 376.
For B4, the “% cells bound” value was 57.9% and the dMFI was 315.
With B5 the “% cells bound” value was 60.9% and the dMFI was 342.
With B6 the “% cells bound” value was 62.2% and the dMFI was 351.

These binders were tested against biotinylated recombinant human IL-12Rβ2 (human) (UniProt Q99665) (assay: ELISA, periplasmic extract on biotinylated hIL-12Rβ2, signal over control wells).
For B7, the ELISA binding hIL-12RB2/control was 2.18.
For B8, the ELISA binding hIL-12RB2/control was 2.43.

These binders were tested against T3, mouse IL-12Rβ2 expressed on cells (assay: flow cytometry, P.E. VHH on HEK293T cells stably expressing mIL-12RB2).
In the case of B3, the “% cells bound” value is reported as 63% and the dMFI is reported as 376.
B4 was tested, and the “% cells bound” value was 57.9% and the dMFI was 315.
B5 was tested, and the “% cells bound” value was 60.9% and the dMFI was 342.
B6 was tested, and the “% cells bound” value was 62.2% and the dMFI was 351.

These binders were tested against T2, biotinylated recombinant human IL-12Rβ2 … (assay: ELISA, P.E. VHH on biotinylated hIL-12RB2, signal ratio to control well).
For B3, the “ELISA hIL12RB2/control” value was 1.2.
For B4, the “ELISA hIL12RB2/control” value was 1.25.
For B5, the “ELISA hIL12RB2/control” value was 0.97.
With B6 the “ELISA hIL12RB2/control” value was 1.31.

What follows are binders tested against T4, biotinylated recombinant mouse IL-12Rβ2 … (assay: ELISA, P.E. VHH on biotinylated mIL-12RB2, signal ratio to control well).
With B3 the “ELISA mIL12RB2/control” value was 3.3.
With B4 the “ELISA mIL12RB2/control” value was 5.98.
In the case of B5, the “ELISA mIL12RB2/control” value is reported as 5.41.
With B6 the “ELISA mIL12RB2/control” value was 47.4.

These binders were tested against T5, biotinylated recombinant mouse IL-12Rβ2 (assay: ELISA, periplasmic extract on biotinylated mIL-12Rβ2, signal over control wells).
In the case of B7, the “ELISA binding mIL-12RB2/control” value is reported as 18 ratio.
With B8 the “ELISA binding mIL-12RB2/control” value was 16.6 ratio.
